Experimental findings from patent US20220119459A1 (OXFORD UNIVERSITY INNOVATION, published 2022) are described below.

One experiment deals with SpyCatcher002. Kind of experiment: 0.5 µM each, PBS pH 7.5, 25 °C, SDS-PAGE with Coomassie staining (FIG. 15A).
Another experiment deals with T1, AP-SpyTag002-MBP.
T1 construct: not shown: AP peptide tag for site-specific biotinylation; only primer DNA is printed for it
The experiment is described as follows: 0.5 µM each, PBS pH 7.5, 25 °C, SDS-PAGE with Coomassie staining (FIG. 16).

SpyTag002 T3H-MBP came in with a percent increase in activity against SpyTag002 (SEQ ID NO: 3) with SpyCatcher002 of 35%.

B1: SpyCatcher002 D5A variant with proline at position 92 and aspartic acid at position 100 (SEQ ID NO:47) (designed binder)
chain: GAMVATLSGLSGEQGPSGDMTTEEDSATHIKFSKRDEDGRELAGATMELRDSSGKTISTWISDGHVKDFYLYPGKYTFVETAAPDGYEVATPITFTVNEDGQVTVNGEATKGDAHT
As to B1, the “reaction rate (second-order rate constant)” value (“reaction rate” for short) with AP-SpyTag002-MBP turned out to be 1.22 µM⁻¹ min⁻¹.

B2: SpyCatcher002 D5A variant with proline at position 92 (SEQ ID NO:45) (designed binder)
chain: GAMVATLSGLSGEQGPSGDMTTEEDSATHIKFSKRDEDGRELAGATMELRDSSGKTISTWISDGHVKDFYLYPGKYTFVETAAPDGYEVATPITFTVNEQGQVTVNGEATKGDAHT
With B2, in the experiment with AP-SpyTag002-MBP, the “reaction rate” value is 0.84 µM⁻¹ min⁻¹.

B3: SpyCatcher002 D5A variant with aspartic acid at position 100 (SEQ ID NO:46) (designed binder)
chain: GAMVATLSGLSGEQGPSGDMTTEEDSATHIKFSKRDEDGRELAGATMELRDSSGKTISTWISDGHVKDFYLYPGKYTFVETAAPDGYEVATAITFTVNEDGQVTVNGEATKGDAHT
Turning to B3, in the experiment with AP-SpyTag002-MBP, the “reaction rate” value was found to be 0.93 µM⁻¹ min⁻¹.
